Laboratory results: PMC7367873, “Dissecting the sequence determinants for dephosphorylation by the catalytic subunits of phosphatases PP1 and PP2A” (Nature Communications, 2020)

B1: ACADM (protein, UniProt P11310 26-421, looked up)
Medium-chain specific …: KANRQREPGLGFSFEFTEQQKEFQATARKFAREEIIPVAAEYDKTGEYPVPLIRRAWELGLMNTHIPENCGGLGLGTFDACLISEELAYGCTGVQTAIEGNSLGQMPIIIAGNDQQKKKYLGRMTEEPLMCAYCVTEPGAGSDVAGIKTKAEKKGDEYIINGQKMWITNGGKANWYFLLARSDPDPKAPANKAFTGFIVEADTPGIQIGRKELNMGQRCSDTRGIVFEDVKVPKENVLIGDGAGFKVAMGAFDKTRPVVAAGAVGLAQRALDEATKYALERKTFGKLLVEHQAISFMLAEMAMKVELARMSYQRAAWEVDSGRRNTYYASIAKAFAGDIANQLATDAVQILGGNGFNTEYPVEKLMRDAKIYQIYEGTSQIQRLIVAREHIDKYKN
B2: RARS (protein, UniProt P54136 1-660, looked up)
Arginine--tRNA ligase, …: MDVLVSECSARLLQQEEEIKSLTAEIDRLKNCGCLGASPNLEQLQEENLKLKYRLNILRKSLQAERNKPTKNMINIISRLQEVFGHAIKAAYPDLENPPLLVTPSQQAKFGDYQCNSAMGISQMLKTKEQKVNPREIAENITKHLPDNECIEKVEIAGPGFINVHLRKDFVSEQLTSLLVNGVQLPALGENKKVIVDFSSPNIAKEMHVGHLRSTIIGESISRLFEFAGYDVLRLNHVGDWGTQFGMLIAHLQDKFPDYLTVSPPIGDLQVFYKESKKRFDTEEEFKKRAYQCVVLLQGKNPDITKAWKLICDVSRQELNKIYDALDVSLIERGESFYQDRMNDIVKEFEDRGFVQVDDGRKIVFVPGCSIPLTIVKSDGGYTYDTSDLAAIKQRLFEEKADMIIYVVDNGQSVHFQTIFAAAQMIGWYDPKVTRVFHAGFGVVLGEDKKKFKTRSGETVRLMDLLGEGLKRSMDKLKEKERDKVLTAEELNAAQTSVAYGCIKYADLSHNRLNDYIFSFDKMLDDRGNTAAYLLYAFTRIRSIARLANIDEEMLQKAARETKILLDHEKEWKLGRCILRFPEILQKILDDLFLHTLCDYIYELATAFTEFYDSCYCVEKDRQTGKILKVNMWRMLLCEAVAAVMAKGFDILGIKPVQRM
B3: ACSL3 (protein, UniProt O95573 1-720, looked up)
Fatty acid CoA ligase Acsl3: MNNHVSSKPSTMKLKHTINPILLYFIHFLISLYTILTYIPFYFFSESRQEKSNRIKAKPVNSKPDSAYRSVNSLDGLASVLYPGCDTLDKVFTYAKNKFKNKRLLGTREVLNEEDEVQPNGKIFKKVILGQYNWLSYEDVFVRAFNFGNGLQMLGQKPKTNIAIFCETRAEWMIAAQACFMYNFQLVTLYATLGGPAIVHALNETEVTNIITSKELLQTKLKDIVSLVPRLRHIITVDGKPPTWSEFPKGIIVHTMAAVEALGAKASMENQPHSKPLPSDIAVIMYTSGSTGLPKGVMISHSNIIAGITGMAERIPELGEEDVYIGYLPLAHVLELSAELVCLSHGCRIGYSSPQTLADQSSKIKKGSKGDTSMLKPTLMAAVPEIMDRIYKNVMNKVSEMSSFQRNLFILAYNYKMEQISKGRNTPLCDSFVFRKVRSLLGGNIRLLLCGGAPLSATTQRFMNICFCCPVGQGYGLTESAGAGTISEVWDYNTGRVGAPLVCCEIKLKNWEEGGYFNTDKPHPRGEILIGGQSVTMGYYKNEAKTKADFFEDENGQRWLCTGDIGEFEPDGCLKIIDRKKDLVKLQAGEYVSLGKVEAALKNLPLVDNICAYANSYHSYVIGFVVPNQKELTELARKKGLKGTWEELCNSCEMENEVLKVLSEAAISASLEKFEIPVKIRLSPEPWTPETGLVTDAFKLKRKELKTHYQADIERMYGRK
B4: UPF1 (protein, UniProt Q92900 1-1129, looked up)
Regulator of nonsense …: MSVEAYGPSSQTLTFLDTEEAELLGADTQGSEFEFTDFTLPSQTQTPPGGPGGPGGGGAGGPGGAGAGAAAGQLDAQVGPEGILQNGAVDDSVAKTSQLLAELNFEEDEEDTYYTKDLPIHACSYCGIHDPACVVYCNTSKKWFCNGRGNTSGSHIVNHLVRAKCKEVTLHKDGPLGETVLECYNCGCRNVFLLGFIPAKADSVVVLLCRQPCASQSSLKDINWDSSQWQPLIQDRCFLSWLVKIPSEQEQLRARQITAQQINKLEELWKENPSATLEDLEKPGVDEEPQHVLLRYEDAYQYQNIFGPLVKLEADYDKKLKESQTQDNITVRWDLGLNKKRIAYFTLPKTDSGNEDLVIIWLRDMRLMQGDEICLRYKGDLAPLWKGIGHVIKVPDNYGDEIAIELRSSVGAPVEVTHNFQVDFVWKSTSFDRMQSALKTFAVDETSVSGYIYHKLLGHEVEDVIIKCQLPKRFTAQGLPDLNHSQVYAVKTVLQRPLSLIQGPPGTGKTVTSATIVYHLARQGNGPVLVCAPSNIAVDQLTEKIHQTGLKVVRLCAKSREAIDSPVSFLALHNQIRNMDSMPELQKLQQLKDETGELSSADEKRYRALKRTAERELLMNADVICCTCVGAGDPRLAKMQFRSILIDESTQATEPECMVPVVLGAKQLILVGDHCQLGPVVMCKKAAKAGLSQSLFERLVVLGIRPIRLQVQYRMHPALSAFPSNIFYEGSLQNGVTAADRVKKGFDFQWPQPDKPMFFYVTQGQEEIASSGTSYLNRTEAANVEKITTKLLKAGAKPDQIGIITPYEGQRSYLVQYMQFSGSLHTKLYQEVEIASVDAFQGREKDFIILSCVRANEHQGIGFLNDPRRLNVALTRARYGVIIVGNPKALSKQPLWNHLLNYYKEQKVLVEGPLNNLRESLMQFSKPRKLVNTINPGARFMTTAMYDAREAIIPGSVYDRSSQGRPSSMYFQTHDQIGMISAGPSHVAAMNIPIPFNLVMPPMPPPGYFGQANGPAAGRGTPKGKTGRGGRQKNRFGLPGPSQTNLPNSQASQDVASQPFSQGALTQGYISMSQPSQMSQPGLSQPELSQDSYLGDEFKSQIDVALSQDSTYQGERAYQHGGVTGLSQY
B5: LRRC59 (protein, UniProt Q96AG4 1-307, looked up)
Leucine-rich …: MTKAGSKGGNLRDKLDGNELDLSLSDLNEVPVKELAALPKATILDLSCNKLTTLPSDFCGLTHLVKLDLSKNKLQQLPADFGRLVNLQHLDLLNNKLVTLPVSFAQLKNLKWLDLKDNPLDPVLAKVAGDCLDEKQCKQCANKVLQHMKAVQADQERERQRRLEVEREAEKKREAKQRAKEAQERELRKREKAEEKERRRKEYDALKAAKREQEKKPKKEANQAPKSKSGSRPRKPPPRKHTRSWAVLKLLLLLLLFGVAGGLVACRVTELQQQPLCTSVNTIYDNAVQGLRRHEILQWVLQTDSQQ
B6: ATP5O (protein, UniProt P48047 24-213, looked up)
ATP synthase peripheral stalk …: FAKLVRPPVQVYGIEGRYATALYSAASKQNKLEQVEKELLRVAQILKEPKVAASVLNPYVKRSIKVKSLNDITAKERFSPLTTNLINLLAENGRLSNTQGVVSAFSTMMSVHRGEVPCTVTSASPLEEATLSELKTVLKSFLSQGQVLKLEAKTDPSILGGMIVRIGEKYVDMSVKTKIQKLGRAMREIV
B7: PLEKHA7 (protein, UniProt Q6IQ23 1-1121, looked up)
Pleckstrin homology …: MAAATVGRDTLPEHWSYGVCRDGRVFFINDQLRCTTWLHPRTGEPVNSGHMIRSDLPRGWEEGFTEEGASYFIDHNQQTTAFRHPVTGQFSPENSEFILQEEPNPHMSKQDRNQRPSSMVSETSTAGTASTLEAKPGPKIIKSSSKVHSFGKRDQAIRRNPNVPVVVRGWLHKQDSSGMRLWKRRWFVLADYCLFYYKDSREEAVLGSIPLPSYVISPVAPEDRISRKYSFKAVHTGMRALIYNSSTAGSQAEQSGMRTYYFSADTQEDMNAWVRAMNQAAQVLSRSSLKRDMEKVERQAVPQANHTESCHECGRVGPGHTRDCPHRGHDDIVNFERQEQEGEQYRSQRDPLEGKRDRSKARSPYSPAEEDALFMDLPTGPRGQQAQPQRAEKNGMLPASYGPGEQNGTGGYQRAFPPRTNPEKHSQRKSNLAQVEHWARAQKGDSRSLPLDQTLPRQGPGQSLSFPENYQTLPKSTRHPSGGSSPPPRNLPSDYKYAQDRASHLKMSSEERRAHRDGTVWQLYEWQQRQQFRHGSPTAPICLGSPEFTDQGRSRSMLEVPRSISVPPSPSDIPPPGPPRVFPPRRPHTPAERVTVKPPDQRRSVDISLGDSPRRARGHAVKNSSHVDRRSMPSMGYMTHTVSAPSLHGKSADDTYLQLKKDLEYLDLKMTGRDLLKDRSLKPVKIAESDTDVKLSIFCEQDRVLQDLEDKIRALKENKDQLESVLEVLHRQMEQYRDQPQHLEKIAYQQKLLQEDLVHIRAELSRESTEMENAWNEYLKLENDVEQLKQTLQEQHRRAFFFQEKSQIQKDLWRIEDVTAGLSANKENFRILVESVKNPERKTVPLFPHPPVPSLSTSESKPPPQPSPPTSPVRTPLEVRLFPQLQTYVPYRPHPPQLRKVTSPLQSPTKAKPKVEDEAPPRPPLPELYSPEDQPPAVPPLPREATIIRHTSVRGLKRQSDERKRDRELGQCVNGDSRVELRSYVSEPELATLSGDMAQPSLGLVGPESRYQTLPGRGLSGSTSRLQQSSTIAPYVTLRRGLNAESSKATFPRPKSALERLYSGDHQRGKMSAEEQLERMKRHQKALVRERKRTLGQGERTGLPSSRYLSRPLPGDLGSVC
B8: MSN (protein, UniProt P26038 2-577, looked up)
Moesin: PKTISVRVTTMDAELEFAIQPNTTGKQLFDQVVKTIGLREVWFFGLQYQDTKGFSTWLKLNKKVTAQDVRKESPLLFKFRAKFYPEDVSEELIQDITQRLFFLQVKEGILNDDIYCPPETAVLLASYAVQSKYGDFNKEVHKSGYLAGDKLLPQRVLEQHKLNKDQWEERIQVWHEEHRGMLREDAVLEYLKIAQDLEMYGVNYFSIKNKKGSELWLGVDALGLNIYEQNDRLTPKIGFPWSEIRNISFNDKKFVIKPIDKKAPDFVFYAPRLRINKRILALCMGNHELYMRRRKPDTIEVQQMKAQAREEKHQKQMERAMLENEKKKREMAEKEKEKIEREKEELMERLKQIEEQTKKAQQELEEQTRRALELEQERKRAQSEAEKLAKERQEAEEAKEALLQASRDQKKTQEQLALEMAELTARISQLEMARQKKESEAVEWQQKAQMVQEDLEKTRAELKTAMSTPHVAEPAENEQDEQDENGAEASADLRADAMAKDRSEEERTTEAEKNERVQKHLKALTSELANARDESKKTANDMIHAENMRLGRDKYKTLRQIRQGNTKQRIDEFESM

Test system: GFP-14-3-3β
Experiment: GFP-14-3-3β co-IP with LC-MS/MS, untreated GFP-14-3-3β versus GFP control (14-3-3 interactome)
Format: binding, human
Conditions: log2 difference; pairwise comparison untreated vs GFP, label-free quantification, 3 replicates each

| Molecule | Difference (log2), untreated vs GFP |
| --- | --- |
| B1 | -2.884 |

Same assay, conditions: pairwise comparison untreated vs GFP

| Molecule | Difference (log2), untreated vs GFP [log2] |
| --- | --- |
| B2 | -0.5854 |
| B3 | 0.1591 |
| B4 | 0.2927 |
| B5 | 0.4854 |
| B6 | 0.8888 |
| B7 | 1.203 |
| B8 | 0.7577 |

Test system: GFP-14-3-3β and its binding proteins
Experiment: GFP-14-3-3β co-IP with LC-MS/MS label-free quantification, untreated versus PP1c-treated
Set-up: species or system human
Conditions: log2 difference; pairwise comparison PP1 vs untreated, label-free quantification, 3 replicates each

| Difference (log2), PP1 vs untreated | Molecule |
| --- | --- |
| 2.074 | B1 |

Same assay, conditions: pairwise comparison PP1 vs untreated

| Difference (log2), PP1 vs untreated [log2] | Molecule |
| --- | --- |
| 0.2613 | B2 |
| 0.2597 | B3 |
| 0.3073 | B4 |
| 0.2489 | B5 |
| 0.2696 | B6 |
| 0.2527 | B7 |
| 0.2864 | B8 |
